Here are results for three substances from patent US20250009808A1.

The assay concerns the target rat RT1A class I histocompatibility antigen (rat (Rattus norvegicus)) (UniProt P16391). Briefly: heterogeneous rat liver cells incubated with antibody; cell count of retained versus flow-through fractions.

Where only a bound is given, the exact number is not on record here.

UniProt P16391, sequence (P16391 25-371 limits assumed): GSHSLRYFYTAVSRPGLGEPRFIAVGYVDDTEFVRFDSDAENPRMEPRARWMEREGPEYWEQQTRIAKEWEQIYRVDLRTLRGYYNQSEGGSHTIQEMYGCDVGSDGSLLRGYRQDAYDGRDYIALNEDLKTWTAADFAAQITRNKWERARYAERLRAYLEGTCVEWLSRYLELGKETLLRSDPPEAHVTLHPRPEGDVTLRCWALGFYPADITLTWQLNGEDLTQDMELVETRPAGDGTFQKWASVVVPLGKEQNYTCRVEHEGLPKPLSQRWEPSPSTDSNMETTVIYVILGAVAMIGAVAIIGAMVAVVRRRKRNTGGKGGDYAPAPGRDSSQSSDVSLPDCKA

As to “anti-RT1A monoclonal antibody IgG1 MRC clone OX-18”, the percent of total cells in the population bound was found to be 60%. Substance “anti-RT1A monoclonal antibody IgG1 clone F16-4-4” yielded a percent of total cells in the population bound of more than 60%. For “anti-RT1A monoclonal antibody IgG2a MRC clone OX-27” the value was less than 10%.
